Molecular target: HIS-SFTSV-NP抗原 (recombinant SFTSV NP antigen expressed in E. coli BL21(DE3) from pET-30a) (新布尼亚病毒 (SFTSV))
Test: indirect ELISA, NP antigen coated

B1: 单克隆抗体anti-SFTSV-NP-mab1 (antibody, V domains shown)
VH: EVQLEESGGGLVQPGGSRKLSCAVSGFTFSNFGIHWVRQAPEKGLEWVAYISSGGTTIYYADTVKGRFTISRDNPMNTLFLQMTSLRSEDTAMYHCARSDYFGMMDYWGQGTSVTVSS
VL: DIVITQTPSSLSASLGDRVTISCRASQDIRNYLNWYQQKPDGTVKLLVYYTSRLHSGVPSRFSGSGSGTDFSLTISNLEQEDIATYFCQQAHTLLTFGAGTKLEIK
With B1 the 工作浓度 was 15.6 ng/mL and the 检测限 (of NP protein) was 1.95 ng/mL.
